Test results reported in patent US20080050378A1 (ONCOTHERAPY SCIENCE, published 2008).

B1: endogenous KIF11 (kinesin family member 11) (other)
chain: MASQPNSSAKKKEEKGKNIQVVVRCRPFNLAERKASAHSIVECDPVRKEVSVRTGGLADKSSRKTYTFDMVFGASTKQIDVYRSVVCPILDEVIMGYNCTIFAYGQTGTGKTFTMEGERSPNEEYTWEEDPLAGIIPRTLHQIFEKLTDNGTEFSVKVSLLEIYNEELFDLLNPSSDVSERLQMFDDPRNKRGVIIKGLEEITVHNKDEVYQILEKGAAKRTTAATLMNAYSSRSHSVFSVTIHMKETTIDGEELVKIGKLNLVDLAGSENIGRSGAVDKRAREAGNINQSLLTLGRVITALVERTPHVPYRESKLTRILQDSLGGRTRTSIIATISPASLNLEETLSTLEYAHRAKNILNKPEVNQKLTKKALIKEYTEEIERLKRDLAAAREKNGVYISEENFRVMSGKLTVQEEQIVELIEKIGAVEEELNRVTELFMDNKNELDQCKSDLQNKTQELETTQKHLQETKLQLVKEEYITSALESTEEKLHDAASKLLNTVEETTKDVSGLHSKLDRKKAVDQHNAEAQDIFGKNLNSLFNNMEELIKDGSSKQKAMLEVHKTLFGNLLSSSVSALDTITTVALGSLTSIPENVSTHVSQIFNMILKEQSLAAESKTVLQELINVLKTDLLSSLEMILSPTVVSILKINSQLKHIFKTSLTVADKIEDQKKELDGFLSILCNNLHELQENTICSLVESQKQCGNLTEDLKTIKQTHSQELCKLMNLWTERFCALEEKCENIQKPLSSVQENIQQKSKDIVNKMTFHSQKFCADSDGFSQELRNFNQEGTKLVEESVKHSDKLNGNLEKISQETEQRCESLNTRTVYFSEQWVSSLNEREQELHNLLEVVSQCCEASSSDITEKSDGRKAAHEKQHNIFLDQMTIDEDKLIAQNLELNETIKIGLTKLNCFLEQDLKLDIPTGTTPQRKSYLYPSTLVRTEPREHLLDQLKRKQPELLMMLNCSENNKEETIPDVDVEEAVLGQYTEEPLSQEPSVDAGVDCSSIGGVPFFQHKKSHGKDKENRGINTLERSKVEETTEHLVTKSRLPLRAQINL
notes: Endogenous protein in cell extracts; GenBank NM-004523 printed for the gene; also called EG5

Experiments:
[1] = target: dynactin 1 (DCTN1; p150, glued homolog, Drosophila), endogenous (human, UniProt Q14203 1-1278, limits assumed); assay: immunoprecipitation with anti-KIF11 polyclonal and anti-DCTN1 monoclonal antibody; 150-kDa partner first identified by MALDI-TOF from LC319 lysate
Chain of dynactin 1 (DCTN1; p150, glued homolog, Drosophila), endogenous (Q14203 whole entry): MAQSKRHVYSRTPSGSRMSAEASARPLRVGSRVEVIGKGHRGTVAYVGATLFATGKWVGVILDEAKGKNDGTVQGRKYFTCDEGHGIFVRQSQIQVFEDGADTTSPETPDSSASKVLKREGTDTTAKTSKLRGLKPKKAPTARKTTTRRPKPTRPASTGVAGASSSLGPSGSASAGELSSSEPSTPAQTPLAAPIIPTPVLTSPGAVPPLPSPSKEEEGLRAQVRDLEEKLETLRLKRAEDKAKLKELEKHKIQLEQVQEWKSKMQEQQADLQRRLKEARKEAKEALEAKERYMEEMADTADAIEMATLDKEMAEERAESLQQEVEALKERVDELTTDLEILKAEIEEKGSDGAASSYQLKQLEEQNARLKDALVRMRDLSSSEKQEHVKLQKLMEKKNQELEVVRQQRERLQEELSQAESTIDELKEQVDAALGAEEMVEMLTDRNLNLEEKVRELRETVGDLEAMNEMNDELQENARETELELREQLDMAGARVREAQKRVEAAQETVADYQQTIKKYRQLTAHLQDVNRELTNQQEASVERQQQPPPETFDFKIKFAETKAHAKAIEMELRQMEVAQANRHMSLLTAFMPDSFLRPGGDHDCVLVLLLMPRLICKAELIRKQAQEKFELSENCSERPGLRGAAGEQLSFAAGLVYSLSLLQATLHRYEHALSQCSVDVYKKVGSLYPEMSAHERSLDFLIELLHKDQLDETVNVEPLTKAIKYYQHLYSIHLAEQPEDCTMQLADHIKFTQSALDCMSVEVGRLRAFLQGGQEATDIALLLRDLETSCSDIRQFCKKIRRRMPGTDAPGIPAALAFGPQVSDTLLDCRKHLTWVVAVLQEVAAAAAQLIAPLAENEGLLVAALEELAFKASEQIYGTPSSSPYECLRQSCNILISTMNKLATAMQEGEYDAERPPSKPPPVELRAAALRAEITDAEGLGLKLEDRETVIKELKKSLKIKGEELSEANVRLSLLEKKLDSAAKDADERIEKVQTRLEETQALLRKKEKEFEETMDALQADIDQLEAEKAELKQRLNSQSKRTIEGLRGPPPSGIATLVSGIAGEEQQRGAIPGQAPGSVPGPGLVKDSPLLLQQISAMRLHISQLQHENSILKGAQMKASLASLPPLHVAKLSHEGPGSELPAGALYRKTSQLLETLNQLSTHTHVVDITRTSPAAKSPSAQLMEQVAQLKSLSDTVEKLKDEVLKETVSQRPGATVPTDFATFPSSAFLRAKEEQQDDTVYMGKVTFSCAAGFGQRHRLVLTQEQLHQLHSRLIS

[2] = target: B1; assay: immunoprecipitation from transfected LC319 cells
[3] = target: B1; assay: immunoprecipitation from transfected A549 cells
[4] = target: B1; assay: anti-Flag and anti-HA immunoprecipitation from transfected LC319 cells, silver stain, MALDI-TOF
Experimental: Cells were extracted in IP-buffer (0.5% NP-40, 50 mM Tris-HCl, 150 mM NaCl, and protease inhibitor) for 30 min on ice. Extracts were centrifuged at 14,000 rpm for 15 min, and supernatants were subjected to immunoprecipitation using anti-Flag M2 agarose (Sigma-Aldrich) and anti-HA beads (Sigma-Aldrich) for 1-2 hours. The beads were washed six times with IP-buffer, and protein was eluted by boiling the beads in Laemmli sample buffer after removing the final wash fraction. The eluted protein was resolved by SDS-PAGE and stained with silver staining. A 125 kDa-band was extracted by gel extraction, and used for mass spectrometric sequencing using MALDI-TOF mass spectrometry.

[5] = target: T1, EYFP-fused KIF11 (EYFP-KIF11) (human, UniProt P52732 1-1056); assay: live-cell fluorescence microscopy of co-transfected COS-7 cells (co-localised particles)
T1 construct: Expressed in COS-7 cells; not shown: EYFP from pEYFP-N1 vector
T1 sequence: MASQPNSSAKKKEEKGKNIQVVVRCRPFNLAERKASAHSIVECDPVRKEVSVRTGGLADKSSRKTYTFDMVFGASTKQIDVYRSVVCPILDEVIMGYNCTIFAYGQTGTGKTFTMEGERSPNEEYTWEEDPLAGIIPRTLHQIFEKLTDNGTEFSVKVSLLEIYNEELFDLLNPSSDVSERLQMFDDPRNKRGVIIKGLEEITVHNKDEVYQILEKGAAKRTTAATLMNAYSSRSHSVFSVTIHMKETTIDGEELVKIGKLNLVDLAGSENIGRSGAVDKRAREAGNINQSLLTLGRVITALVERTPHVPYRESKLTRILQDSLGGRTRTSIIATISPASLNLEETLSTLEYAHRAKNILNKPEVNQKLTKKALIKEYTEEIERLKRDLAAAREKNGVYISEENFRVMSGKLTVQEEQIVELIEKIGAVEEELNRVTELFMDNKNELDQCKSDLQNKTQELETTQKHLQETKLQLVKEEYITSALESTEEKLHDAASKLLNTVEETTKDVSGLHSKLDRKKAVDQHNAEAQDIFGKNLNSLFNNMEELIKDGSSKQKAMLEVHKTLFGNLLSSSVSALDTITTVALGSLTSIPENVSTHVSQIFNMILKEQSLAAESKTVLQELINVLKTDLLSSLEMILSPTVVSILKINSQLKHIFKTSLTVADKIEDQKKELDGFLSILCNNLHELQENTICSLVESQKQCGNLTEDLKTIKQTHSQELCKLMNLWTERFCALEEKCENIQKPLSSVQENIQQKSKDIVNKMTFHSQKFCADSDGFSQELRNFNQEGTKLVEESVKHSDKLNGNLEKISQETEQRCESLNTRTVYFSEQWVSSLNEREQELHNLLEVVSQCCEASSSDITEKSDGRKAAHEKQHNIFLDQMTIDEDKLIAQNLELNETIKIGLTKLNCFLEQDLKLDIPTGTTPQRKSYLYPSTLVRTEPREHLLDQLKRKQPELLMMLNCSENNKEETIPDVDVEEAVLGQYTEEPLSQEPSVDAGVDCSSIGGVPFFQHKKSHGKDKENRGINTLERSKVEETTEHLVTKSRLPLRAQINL

[6] = target: B1; assay: reciprocal immunoprecipitation with anti-KOC1 and anti-KIF11 polyclonal antibodies, western blot

B1
binding result [1]: binds

B2: KOC1DEL3 (KOC1 deletion mutant 3; 2xRRM without KH, N-terminal FLAG, C-terminal HA) (other)
chain: MNKLYIGNLSENAAPSDLESIFKDAKIPVSGPFLVKTGYAFVDCPDESWALKAIEALSGKIELHGKPIEVEHSVPKRQRIRKLQIRNIPPHLQWEVLDSLLVQYGVVESCEQVNTDSETAVVNVTYSSKDQARQALDKLNGFQLENFTLKVAYIPDEMAAQQNPLQQPRGRRGLGQRGSSRQGSPGSVSKQKPCDLP
notes: Contains the two RRMs and lacks the four KH domains; also called the RRM domains; not shown: N-terminal FLAG tag; C-terminal HA tag
binding result [2]: binds

B3: KOC1DEL2 (KOC1 deletion mutant 2; 2xRRM+2xKH, N-terminal FLAG, C-terminal HA) (other)
chain: MNKLYIGNLSENAAPSDLESIFKDAKIPVSGPFLVKTGYAFVDCPDESWALKAIEALSGKIELHGKPIEVEHSVPKRQRIRKLQIRNIPPHLQWEVLDSLLVQYGVVESCEQVNTDSETAVVNVTYSSKDQARQALDKLNGFQLENFTLKVAYIPDEMAAQQNPLQQPRGRRGLGQRGSSRQGSPGSVSKQKPCDLPLRLLVPTQFVGAIIGKEGATIRNITKQTQSKIDVHRKENAGAAEKSITILSTPEGTSAACKSILEIMHKEAQDIKFTEEIPLKILAHNNFVGRLIGKEGRNLKKIEQDTDTKITISPLQELTLYNPERTITVKGNVETCAKAEEEIMKKIRESYENDIASMNLQAHLIPGLNLNALGLFPPTSGMPPPTSGPPSAMTPPYPQFEQSETE
notes: Lacks the C-terminal two KH domains; not shown: N-terminal FLAG tag; C-terminal HA tag
binding result [3]: binds

B4: FLAG- and HA-tagged KOC1 (pCAGGS-n3FH-KOC1; NH2-terminal FLAG, COOH-terminal HA) (other)
chain: MNKLYIGNLSENAAPSDLESIFKDAKIPVSGPFLVKTGYAFVDCPDESWALKAIEALSGKIELHGKPIEVEHSVPKRQRIRKLQIRNIPPHLQWEVLDSLLVQYGVVESCEQVNTDSETAVVNVTYSSKDQARQALDKLNGFQLENFTLKVAYIPDEMAAQQNPLQQPRGRRGLGQRGSSRQGSPGSVSKQKPCDLPLRLLVPTQFVGAIIGKEGATIRNITKQTQSKIDVHRKENAGAAEKSITILSTPEGTSAACKSILEIMHKEAQDIKFTEEIPLKILAHNNFVGRLIGKEGRNLKKIEQDTDTKITISPLQELTLYNPERTITVKGNVETCAKAEEEIMKKIRESYENDIASMNLQAHLIPGLNLNALGLFPPTSGMPPPTSGPPSAMTPPYPQFEQSETETVHLFIPALSVGAIIGKQGQHIKQLSRFAGASIKIAPAEAPDAKVRMVIITGPPEAQFKAQGRIYGKIKEENFVSPKEEVKLEAHIRVPSFAAGRVIGKGGKTVNELQNLSSAEVVVPRDQTPDENDQVVVKITGHFYACQVAQRKIQEILTQVKQHQQQKALQSGPPQSRRK
notes: also called pCAGGS-FLAG-tagged-KOC1; full length KOC1 construct; not shown: N-terminal FLAG tag; C-terminal HA tag
binding result [4]: binds

B5: ECFP-fused KOC1 (ECFP-KOC1) (other)
chain: MNKLYIGNLSENAAPSDLESIFKDAKIPVSGPFLVKTGYAFVDCPDESWALKAIEALSGKIELHGKPIEVEHSVPKRQRIRKLQIRNIPPHLQWEVLDSLLVQYGVVESCEQVNTDSETAVVNVTYSSKDQARQALDKLNGFQLENFTLKVAYIPDEMAAQQNPLQQPRGRRGLGQRGSSRQGSPGSVSKQKPCDLPLRLLVPTQFVGAIIGKEGATIRNITKQTQSKIDVHRKENAGAAEKSITILSTPEGTSAACKSILEIMHKEAQDIKFTEEIPLKILAHNNFVGRLIGKEGRNLKKIEQDTDTKITISPLQELTLYNPERTITVKGNVETCAKAEEEIMKKIRESYENDIASMNLQAHLIPGLNLNALGLFPPTSGMPPPTSGPPSAMTPPYPQFEQSETETVHLFIPALSVGAIIGKQGQHIKQLSRFAGASIKIAPAEAPDAKVRMVIITGPPEAQFKAQGRIYGKIKEENFVSPKEEVKLEAHIRVPSFAAGRVIGKGGKTVNELQNLSSAEVVVPRDQTPDENDQVVVKITGHFYACQVAQRKIQEILTQVKQHQQQKALQSGPPQSRRK
notes: Expressed in COS-7 cells; not shown: ECFP from pECFP-N1 vector
binding result [5]: binds

B6: endogenous KOC1 (KH domain containing protein over-expressed in cancer) (other)
chain: MNKLYIGNLSENAAPSDLESIFKDAKIPVSGPFLVKTGYAFVDCPDESWALKAIEALSGKIELHGKPIEVEHSVPKRQRIRKLQIRNIPPHLQWEVLDSLLVQYGVVESCEQVNTDSETAVVNVTYSSKDQARQALDKLNGFQLENFTLKVAYIPDEMAAQQNPLQQPRGRRGLGQRGSSRQGSPGSVSKQKPCDLPLRLLVPTQFVGAIIGKEGATIRNITKQTQSKIDVHRKENAGAAEKSITILSTPEGTSAACKSILEIMHKEAQDIKFTEEIPLKILAHNNFVGRLIGKEGRNLKKIEQDTDTKITISPLQELTLYNPERTITVKGNVETCAKAEEEIMKKIRESYENDIASMNLQAHLIPGLNLNALGLFPPTSGMPPPTSGPPSAMTPPYPQFEQSETETVHLFIPALSVGAIIGKQGQHIKQLSRFAGASIKIAPAEAPDAKVRMVIITGPPEAQFKAQGRIYGKIKEENFVSPKEEVKLEAHIRVPSFAAGRVIGKGGKTVNELQNLSSAEVVVPRDQTPDENDQVVVKITGHFYACQVAQRKIQEILTQVKQHQQQKALQSGPPQSRRK
notes: Endogenous protein in cell extracts; GenBank NM-006547 printed for the gene; also called IMP-3
binding result [6]: binds
